How the values were obtained:
Assay in all cases: SPR; He Ab vs HeCon Ab (GpH7-A5/GpH7-B3/GpL16-k0)=100;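 also: surface plasmon resonance at 25 °C with the test antibody captured on a sensor chip via antigenic peptide, protein L or protein A/G and FcγR flowed over as analyte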
[1] = biological target: T1, FcγRIIa(H) extracellular domain, C-terminal His tag (human, UniProt P12318 34-217)
T1 construct: extracellular domain; also called 2aH
T1 sequence: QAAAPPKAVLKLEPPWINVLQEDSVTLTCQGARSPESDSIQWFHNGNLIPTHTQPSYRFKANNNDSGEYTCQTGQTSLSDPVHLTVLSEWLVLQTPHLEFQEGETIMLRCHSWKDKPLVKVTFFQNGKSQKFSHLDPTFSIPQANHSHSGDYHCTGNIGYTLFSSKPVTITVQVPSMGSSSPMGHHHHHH
Description: (§1) The antibody of interest was analyzed for its interaction with FcγR using a BiaCore™ T100, BiaCore™ A100, or BiaCore™ 4000 surface plasmon resonance system (GE Healthcare Japan Corp.). The running buffer used was HBS-EP+ (GE Healthcare Japan Corp.). The assay temperature was set to 25° C. The sensor chips used were: a chip prepared by immobilizing antigenic peptides onto Series S Sensor Chip CM5 (GE Healthcare Japan Corp.) by the amine coupling method; a chip prepared by immobilizing antigenic peptides biotinylated in advance onto Series S Sensor Chip SA (certified) (GE Healthcare Japan Corp.) through their interaction; a chip prepared by immobilizing protein L (ACTIGEN, BioVision, Inc.) onto Series S Sensor Chip CM5 (GE Healthcare Japan Corp.); and a chip prepared by immobilizing protein A/G (Thermo Fisher Scientific K.K.) onto Series S Sensor Chip CM5 (GE Healthcare Japan Corp.). The antibody of interest was captured onto any of these chips and allowed to interact with FcγR diluted with a running buffer. The antibody captured on the chip was washed off through the reaction of 10 mM glycine-HCl (pH 1.5) to regenerate the chip, which was repetitively used.

[2] = biological target: T2, FcγRIIb extracellular domain, C-terminal His tag (human, UniProt P31994 43-217)
T2 construct: extracellular domain; also called 2b
T2 sequence: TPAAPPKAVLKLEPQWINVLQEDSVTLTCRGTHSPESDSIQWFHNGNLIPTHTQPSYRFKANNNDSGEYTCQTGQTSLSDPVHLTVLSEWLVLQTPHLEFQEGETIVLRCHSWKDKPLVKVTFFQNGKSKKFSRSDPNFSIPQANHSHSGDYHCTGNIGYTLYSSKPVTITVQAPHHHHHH
Description: as §1

[3] = biological target: T3, FcγRIIa(R) extracellular domain, C-terminal His tag (human, UniProt P12318 34-217)
T3 construct: extracellular domain; also called 2aR
T3 sequence: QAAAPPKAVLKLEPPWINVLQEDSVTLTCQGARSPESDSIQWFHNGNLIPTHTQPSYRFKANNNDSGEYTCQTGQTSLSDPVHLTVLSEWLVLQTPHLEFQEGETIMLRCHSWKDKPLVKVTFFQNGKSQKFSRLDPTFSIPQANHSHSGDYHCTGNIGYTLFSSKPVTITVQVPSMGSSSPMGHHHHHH
Description: as §1

[4] = biological target: T4, FcγRIIIa extracellular domain, C-terminal His tag (human, UniProt P08637 17-208)
T4 construct: extracellular domain; also called 3a
T4 sequence (P08637 other isoform, or with tags, fused parts or gaps): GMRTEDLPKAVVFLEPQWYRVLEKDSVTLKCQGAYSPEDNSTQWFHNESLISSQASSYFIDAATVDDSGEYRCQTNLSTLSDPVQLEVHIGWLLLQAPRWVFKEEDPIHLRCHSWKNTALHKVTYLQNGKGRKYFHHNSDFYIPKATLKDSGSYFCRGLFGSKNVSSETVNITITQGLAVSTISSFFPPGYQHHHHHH
Description: as §1

[5] = biological target: T5, FcγRIa extracellular domain, C-terminal His tag (human, UniProt P12314 16-292)
T5 construct: extracellular domain; also called 1a
T5 sequence (P12314 other isoform, or with tags, fused parts or gaps): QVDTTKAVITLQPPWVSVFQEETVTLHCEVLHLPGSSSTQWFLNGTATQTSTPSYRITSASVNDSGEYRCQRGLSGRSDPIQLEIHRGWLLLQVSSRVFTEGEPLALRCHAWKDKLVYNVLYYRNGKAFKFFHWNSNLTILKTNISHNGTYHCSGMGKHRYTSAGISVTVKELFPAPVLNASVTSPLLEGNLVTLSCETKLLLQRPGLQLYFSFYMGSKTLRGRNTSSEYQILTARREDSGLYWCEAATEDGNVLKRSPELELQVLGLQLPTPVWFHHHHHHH
Description: as §1

B1: GpH7-A5/GpH7-B3 variant P271_19Q/GpL16-k0 (antibody, human IgG1, kappa)
heavy 1: not shown
heavy 2: not shown
light: DIVMTQSPLSLPVTPGEPASISCQASESLVHSNRNTYLHWYLQKPGQSPQLLIYKVSNRFSGVPDRFSGSGSGTDFTLKISRVEAEDVGVYYCSQNTHVPPTFGQGTKVEIERTVAAPSVFIFPPSDEQLKSGTASVVCLLNNFYPREAKVQWKVDNALQSGNSQESVTEQDSKDSTYSLSSTLTLSKADYEKHKVYACEVTHQGLSSPVTKSFNRGEC
notes: heterodimerized IgG1, one H chain mutated; also called He Ab; copies: 1 + 1 + 2
He/Con 2aH [1]: 90.7% | He/Con 2b [2]: 99.3% | He/Con 2aR [3]: 95.1% | He/Con 3a [4]: 84.6% | He/Con 1a [5]: 102%

B2: GpH7-A5/GpH7-B3 variant P271_20W/GpL16-k0 (antibody, human IgG1, kappa)
heavy 1: not shown
heavy 2: not shown
light: DIVMTQSPLSLPVTPGEPASISCQASESLVHSNRNTYLHWYLQKPGQSPQLLIYKVSNRFSGVPDRFSGSGSGTDFTLKISRVEAEDVGVYYCSQNTHVPPTFGQGTKVEIERTVAAPSVFIFPPSDEQLKSGTASVVCLLNNFYPREAKVQWKVDNALQSGNSQESVTEQDSKDSTYSLSSTLTLSKADYEKHKVYACEVTHQGLSSPVTKSFNRGEC
notes: as for B1
He/Con 2aH [1]: 88.7% | He/Con 2b [2]: 65.1% | He/Con 2aR [3]: 76.6% | He/Con 3a [4]: 77.8% | He/Con 1a [5]: 101%

B3: GpH7-A5/GpH7-B3 variant Q295_01G/GpL16-k0 (antibody, human IgG1, kappa)
heavy 1: not shown
heavy 2: not shown
light: DIVMTQSPLSLPVTPGEPASISCQASESLVHSNRNTYLHWYLQKPGQSPQLLIYKVSNRFSGVPDRFSGSGSGTDFTLKISRVEAEDVGVYYCSQNTHVPPTFGQGTKVEIERTVAAPSVFIFPPSDEQLKSGTASVVCLLNNFYPREAKVQWKVDNALQSGNSQESVTEQDSKDSTYSLSSTLTLSKADYEKHKVYACEVTHQGLSSPVTKSFNRGEC
notes: as for B1
He/Con 2aH [1]: 62.5% | He/Con 2b [2]: 51.6% | He/Con 2aR [3]: 60.3% | He/Con 3a [4]: 76.6% | He/Con 1a [5]: 96.1%

B4: GpH7-A5/GpH7-B3 variant Q295_02A/GpL16-k0 (antibody, human IgG1, kappa)
heavy 1: not shown
heavy 2: not shown
light: DIVMTQSPLSLPVTPGEPASISCQASESLVHSNRNTYLHWYLQKPGQSPQLLIYKVSNRFSGVPDRFSGSGSGTDFTLKISRVEAEDVGVYYCSQNTHVPPTFGQGTKVEIERTVAAPSVFIFPPSDEQLKSGTASVVCLLNNFYPREAKVQWKVDNALQSGNSQESVTEQDSKDSTYSLSSTLTLSKADYEKHKVYACEVTHQGLSSPVTKSFNRGEC
notes: as for B1
He/Con 2aH [1]: 101% | He/Con 2b [2]: 89.4% | He/Con 2aR [3]: 91.5% | He/Con 3a [4]: 111% | He/Con 1a [5]: 103%

B5: GpH7-A5/GpH7-B3 variant Q295_03V/GpL16-k0 (antibody, human IgG1, kappa)
heavy 1: not shown
heavy 2: not shown
light: DIVMTQSPLSLPVTPGEPASISCQASESLVHSNRNTYLHWYLQKPGQSPQLLIYKVSNRFSGVPDRFSGSGSGTDFTLKISRVEAEDVGVYYCSQNTHVPPTFGQGTKVEIERTVAAPSVFIFPPSDEQLKSGTASVVCLLNNFYPREAKVQWKVDNALQSGNSQESVTEQDSKDSTYSLSSTLTLSKADYEKHKVYACEVTHQGLSSPVTKSFNRGEC
notes: as for B1
He/Con 2aH [1]: 106% | He/Con 2b [2]: 84.9% | He/Con 2aR [3]: 90.3% | He/Con 3a [4]: 86.2% | He/Con 1a [5]: 102%

B6: GpH7-A5/GpH7-B3 variant Q295_04F/GpL16-k0 (antibody, human IgG1, kappa)
heavy 1: not shown
heavy 2: not shown
light: DIVMTQSPLSLPVTPGEPASISCQASESLVHSNRNTYLHWYLQKPGQSPQLLIYKVSNRFSGVPDRFSGSGSGTDFTLKISRVEAEDVGVYYCSQNTHVPPTFGQGTKVEIERTVAAPSVFIFPPSDEQLKSGTASVVCLLNNFYPREAKVQWKVDNALQSGNSQESVTEQDSKDSTYSLSSTLTLSKADYEKHKVYACEVTHQGLSSPVTKSFNRGEC
notes: as for B1
He/Con 2aH [1]: 87.4% | He/Con 2b [2]: 72.6% | He/Con 2aR [3]: 82.8% | He/Con 3a [4]: 75.1% | He/Con 1a [5]: 101%

B7: GpH7-A5/GpH7-B3 variant Q295_05P/GpL16-k0 (antibody, human IgG1, kappa)
heavy 1: not shown
heavy 2: not shown
light: DIVMTQSPLSLPVTPGEPASISCQASESLVHSNRNTYLHWYLQKPGQSPQLLIYKVSNRFSGVPDRFSGSGSGTDFTLKISRVEAEDVGVYYCSQNTHVPPTFGQGTKVEIERTVAAPSVFIFPPSDEQLKSGTASVVCLLNNFYPREAKVQWKVDNALQSGNSQESVTEQDSKDSTYSLSSTLTLSKADYEKHKVYACEVTHQGLSSPVTKSFNRGEC
notes: as for B1
He/Con 2aH [1]: 118% | He/Con 2b [2]: 75.7% | He/Con 2aR [3]: 86.6% | He/Con 3a [4]: 74.4% | He/Con 1a [5]: 102%

B8: GpH7-A5/GpH7-B3 variant Q295_06M/GpL16-k0 (antibody, human IgG1, kappa)
heavy 1: not shown
heavy 2: not shown
light: DIVMTQSPLSLPVTPGEPASISCQASESLVHSNRNTYLHWYLQKPGQSPQLLIYKVSNRFSGVPDRFSGSGSGTDFTLKISRVEAEDVGVYYCSQNTHVPPTFGQGTKVEIERTVAAPSVFIFPPSDEQLKSGTASVVCLLNNFYPREAKVQWKVDNALQSGNSQESVTEQDSKDSTYSLSSTLTLSKADYEKHKVYACEVTHQGLSSPVTKSFNRGEC
notes: as for B1
He/Con 2aH [1]: 111% | He/Con 2b [2]: 101% | He/Con 2aR [3]: 101% | He/Con 3a [4]: 100% | He/Con 1a [5]: 102%

B9: GpH7-A5/GpH7-B3 variant Q295_07I/GpL16-k0 (antibody, human IgG1, kappa)
heavy 1: not shown
heavy 2: not shown
light: DIVMTQSPLSLPVTPGEPASISCQASESLVHSNRNTYLHWYLQKPGQSPQLLIYKVSNRFSGVPDRFSGSGSGTDFTLKISRVEAEDVGVYYCSQNTHVPPTFGQGTKVEIERTVAAPSVFIFPPSDEQLKSGTASVVCLLNNFYPREAKVQWKVDNALQSGNSQESVTEQDSKDSTYSLSSTLTLSKADYEKHKVYACEVTHQGLSSPVTKSFNRGEC
notes: as for B1
He/Con 2aH [1]: 117% | He/Con 2b [2]: 94.5% | He/Con 2aR [3]: 97.3% | He/Con 3a [4]: 101% | He/Con 1a [5]: 101%

B10: GpH7-A5/GpH7-B3 variant Q295_08L/GpL16-k0 (antibody, human IgG1, kappa)
heavy 1: not shown
heavy 2: not shown
light: DIVMTQSPLSLPVTPGEPASISCQASESLVHSNRNTYLHWYLQKPGQSPQLLIYKVSNRFSGVPDRFSGSGSGTDFTLKISRVEAEDVGVYYCSQNTHVPPTFGQGTKVEIERTVAAPSVFIFPPSDEQLKSGTASVVCLLNNFYPREAKVQWKVDNALQSGNSQESVTEQDSKDSTYSLSSTLTLSKADYEKHKVYACEVTHQGLSSPVTKSFNRGEC
notes: as for B1
He/Con 2aH [1]: 128% | He/Con 2b [2]: 134% | He/Con 2aR [3]: 118% | He/Con 3a [4]: 120% | He/Con 1a [5]: 103%

B11: GpH7-A5/GpH7-B3 variant Q295_09D/GpL16-k0 (antibody, human IgG1, kappa)
heavy 1: not shown
heavy 2: not shown
light: DIVMTQSPLSLPVTPGEPASISCQASESLVHSNRNTYLHWYLQKPGQSPQLLIYKVSNRFSGVPDRFSGSGSGTDFTLKISRVEAEDVGVYYCSQNTHVPPTFGQGTKVEIERTVAAPSVFIFPPSDEQLKSGTASVVCLLNNFYPREAKVQWKVDNALQSGNSQESVTEQDSKDSTYSLSSTLTLSKADYEKHKVYACEVTHQGLSSPVTKSFNRGEC
notes: as for B1
He/Con 2aH [1]: 62.6% | He/Con 2b [2]: 68.1% | He/Con 2aR [3]: 68.7% | He/Con 3a [4]: 85.6% | He/Con 1a [5]: 98.5%

B12: GpH7-A5/GpH7-B3 variant Q295_10E/GpL16-k0 (antibody, human IgG1, kappa)
heavy 1: not shown
heavy 2: not shown
light: DIVMTQSPLSLPVTPGEPASISCQASESLVHSNRNTYLHWYLQKPGQSPQLLIYKVSNRFSGVPDRFSGSGSGTDFTLKISRVEAEDVGVYYCSQNTHVPPTFGQGTKVEIERTVAAPSVFIFPPSDEQLKSGTASVVCLLNNFYPREAKVQWKVDNALQSGNSQESVTEQDSKDSTYSLSSTLTLSKADYEKHKVYACEVTHQGLSSPVTKSFNRGEC
notes: as for B1
He/Con 2aH [1]: 112% | He/Con 2b [2]: 106% | He/Con 2aR [3]: 101% | He/Con 3a [4]: 105% | He/Con 1a [5]: 101%

B13: GpH7-A5/GpH7-B3 variant Q295_11K/GpL16-k0 (antibody, human IgG1, kappa)
heavy 1: not shown
heavy 2: not shown
light: DIVMTQSPLSLPVTPGEPASISCQASESLVHSNRNTYLHWYLQKPGQSPQLLIYKVSNRFSGVPDRFSGSGSGTDFTLKISRVEAEDVGVYYCSQNTHVPPTFGQGTKVEIERTVAAPSVFIFPPSDEQLKSGTASVVCLLNNFYPREAKVQWKVDNALQSGNSQESVTEQDSKDSTYSLSSTLTLSKADYEKHKVYACEVTHQGLSSPVTKSFNRGEC
notes: as for B1
He/Con 2aH [1]: 102% | He/Con 2b [2]: 79% | He/Con 2aR [3]: 88.1% | He/Con 3a [4]: 81.8% | He/Con 1a [5]: 99.7%

From patent publication US20260167699A1 (Chugai, published 2026)
